# Source: patent publication US20090042291A1 (published 2009)
# T1: human FcγRIIb on cells (HEK293T cells transfected with human FcγRIIb cDNA; primary human B cells) (human, UniProt P31994 43-310)
# T1 construct: whole, on cells; also called CD32b
# T1 sequence (looked up): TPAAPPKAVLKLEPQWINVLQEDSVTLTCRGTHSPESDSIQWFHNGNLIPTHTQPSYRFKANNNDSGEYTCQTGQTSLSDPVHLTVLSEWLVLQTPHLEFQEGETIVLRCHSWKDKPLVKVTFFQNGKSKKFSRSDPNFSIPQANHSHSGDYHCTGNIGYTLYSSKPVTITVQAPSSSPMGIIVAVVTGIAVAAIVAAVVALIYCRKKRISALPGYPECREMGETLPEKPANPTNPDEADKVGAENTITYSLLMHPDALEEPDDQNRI
# T2: human FcγRIIb receptor protein (R&D Systems) (human, UniProt P31994 46-217, limits assumed)
# T2 construct: Bought
# T2 sequence (looked up): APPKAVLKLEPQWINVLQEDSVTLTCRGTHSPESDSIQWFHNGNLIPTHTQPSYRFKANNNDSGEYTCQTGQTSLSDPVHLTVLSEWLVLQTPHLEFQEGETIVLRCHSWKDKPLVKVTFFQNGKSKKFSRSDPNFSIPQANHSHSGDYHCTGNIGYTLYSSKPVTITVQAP
# B1: anti-CD19 HuAM4G7 IgG1 S267E/L328F (antibody)
# chain 1: not shown
# chain 2: DIVMTQSPATLSLSPGERATLSCRSSKSLQNVNGNTYLYWFQQKPGQSPQLLIYRMSNLNSGVPDRFSGSGSGTEFTLTISSLEPEDFAVYYCMQHLEYPITFGAGTKLEIKRTVAAPSVFIFPPSDEQLKSGTASVVCLLNNFYPREAKVQWKVDNALQSGNSQESVTEQDSKDSTYSLSSTLTLSKADYEKHKVYACEVTHQGLSSPVTKSFNRGEC
# B2: anti-CD19 HuAM4G7 IgG1 S267E (antibody)
# chain 1: not shown
# chain 2: B1 chain 2
# B3: anti-CD19 HuAM4G7 IgG1 S267A (antibody)
# chain 1: not shown
# chain 2: B1 chain 2
# What was measured:
# [1] = target: T1, human FcγRIIb on cells (HEK293T cells …); test: flow cytometry on HEK293T cells transfected with human FcγRIIb, PE anti-human Fab detection
# [2] = target: T2, human FcγRIIb receptor protein (R&D …); test: Biacore SPR
binder,measurement,setting,value
B1,EC50 fold relative to WT IgG1,[1],~320 fold
B2,Kd,[2],71.9 nM
same,fold relative to native IgG1,[2],20.4 fold
B3,Kd,[2],408 nM
same,fold relative to native IgG1,[2],3.6 fold
